Source: PMC4288179, “Synergic interplay of the La motif, RRM1 and the interdomain linker of LARP6 in the recognition of collagen mRNA expands the RNA binding repertoire of the La module”
Numbering of substitutions follows the chain as printed.

Columns and labels:
Experiment in all cases: ITC; ITC: 20 mM Tris pH 7.25, 100 mM KCl, 5 mM MgCl2, 1 mM DTT, 298 K; protein titrated into RNA
Conditions in all cases: protein: recombinant; tags: N-terminal His6 (TEV-cleavable); stem-loop with internal bulge
HsLARP6(70-300) K196A = molecular target: T1, HsLARP6(70-300) K196A (Homo sapiens, UniProt Q9BRS8 70-300, K196A)
T1 sequence: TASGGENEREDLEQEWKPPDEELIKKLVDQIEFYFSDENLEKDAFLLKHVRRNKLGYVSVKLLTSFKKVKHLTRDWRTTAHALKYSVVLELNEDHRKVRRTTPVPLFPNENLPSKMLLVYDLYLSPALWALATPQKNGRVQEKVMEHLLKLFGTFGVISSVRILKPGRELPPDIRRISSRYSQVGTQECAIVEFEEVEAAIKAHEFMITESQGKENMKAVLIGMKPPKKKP

HsLARP6(70-300) Q99A = molecular target: T2, HsLARP6(70-300) Q99A (Homo sapiens, UniProt Q9BRS8 70-300, Q99A)
T2 sequence: T1 sequence with Q30A, A127K

HsLARP6(70-300) Y103A = molecular target: T3, HsLARP6(70-300) Y103A (Homo sapiens, UniProt Q9BRS8 70-300, Y103A)
T3 sequence: T1 sequence with Y34A, A127K

HsLARP6(70-300) W85A = molecular target: T4, HsLARP6(70-300) W85A (Homo sapiens, UniProt Q9BRS8 70-300, W85A)
T4 sequence: T1 sequence with W16A, A127K

HsLARP6(70-300) R249A = molecular target: T5, HsLARP6(70-300) R249A (Homo sapiens, UniProt Q9BRS8 70-300, R249A)
T5 sequence: T1 sequence with A127K, R180A

HsLARP6(70-300) F114A = molecular target: T6, HsLARP6(70-300) F114A (Homo sapiens, UniProt Q9BRS8 70-300, F114A)
T6 sequence: T1 sequence with F45A, A127K

[1] = molecular target: T7, HsLARP6(70-300) R244E/R245E/R249E (Homo sapiens, UniProt Q9BRS8 70-300, R244E;R245E;R249E)
T7 sequence: T1 sequence with A127K, R175E, R176E, R180E

HsLARP6(70-300) E262A = molecular target: T8, HsLARP6(70-300) E262A (Homo sapiens, UniProt Q9BRS8 70-300, E262A)
T8 sequence: T1 sequence with A127K, E193A

Question: Which results are given for CCACAAAGAGUCUACAUGUCUAGGGUCUAGACAUGUUCAGCUUUGUGG (structured_RNA) [48 nt RNA (collagen alpha1(I) 5' UTR SL)]?
Answer: Kd (HsLARP6(70-300) K196A): 48 nM; binding result (HsLARP6(70-300) Q99A): no binding; binding result (HsLARP6(70-300) Y103A): no binding; Kd (HsLARP6(70-300) W85A): 22 nM; Kd (HsLARP6(70-300) R249A): 26 nM; binding result (HsLARP6(70-300) F114A): no binding; Kd [1]: 27 nM; Kd (HsLARP6(70-300) E262A): 5.3 nM
